Data as given in the RNAGym collection of RNA variant scans (doi:10.1021/acssynbio.7b00057).

B1: Pistol ribozyme (parent)
chain: GGGUCGUUGUUCCAUAAUCGCGUGGAUAUGGCACGCAAGUUUCUACCGGGCACCGUAAAUGUCCGACUGGAGCCGUUCGGGCGGCUAUAAACAGACCUCAGGCCCGAAGCGUGGCGGCACCUGCCGCCGGUGGUAAAAAAGAUCGGAAGAGCACACGUCU

Variants of: B1
Assay: aptazyme ON/OFF ratio, guanine; higher = stronger switching; co-transcriptional cleavage with and without guanine

Row | Variant | aptazyme ON/OFF ratio
1 | U8A G9A U10C U11A C12U C13A | 1.31
2 | U8A G9A U10C U11A C12U C13G | 1.21
3 | U8A G9A U10C U11A C12U C13U | 1.33
4 | U8A G9A U10A C12A C13A | 1.17
5 | U8A G9A U10A C12A C13G | 1.17
6 | U8A G9A U10A C12A C13U | 1.39
7 | U8A G9A U11C C12A C13U | 1.2
8 | U8A G9A U11C C12A C13A | 1.07
9 | U8A G9A U11C C12A C13G | 1.23
10 | U8A G9A U10C U11G C12A C13U | 1.17
11 | U8A G9A U10C U11G C12A C13A | 1.19
12 | U8A G9A U10C U11G C12A C13G | 1.23
13 | U8A G9A U10G U11G C12G | 1.26
14 | U8A G9A U10G U11G C12A | 1.09
15 | U8A G9A U10G U11G C12U | 1.2
16 | U8A C13G | 1.11
17 | U8A C13U | 1.43
18 | U8A C13A | 1.24
19 | U7G U11A C12A C13A | 1.17
20 | U7G U11A C12A C13G | 1.14
21 | U7G U11A C12A C13U | 1.22

Row | Variant | aptazyme ON/OFF ratio
22 | U8A G9A C12G | 1.41
23 | U8A G9A C12A | 1.34
24 | U8A G9A C12U | 1.33
25 | U8A G9A U10G U11G C12G C13U | 1.05
26 | U8A G9A U10G U11G C12G C13A | 1.01
27 | U8A G9A U10G U11G C12G C13G | 1.07
28 | U8A G9A U10C U11A C12G C13G | 1.12
29 | U8A G9A U10C U11A C12G C13A | 1.19
30 | U8A G9A U10C U11A C12G C13U | 1.22
31 | U8A G9A U10C C12G C13U | 1.22
32 | U8A G9A U10C C12G C13G | 1.24
33 | U8A G9A U10C C12G C13A | 1.19
34 | U8A G9A U10C U11G C12U C13G | 1.22
35 | U8A G9A U10C U11G C12U C13A | 1.17
36 | U8A G9A U10C U11G C12U C13U | 1.22
37 | U8A G9A U10G U11A C12A C13U | 1.25
38 | U8A G9A U10G U11A C12A C13A | 1.19
39 | U8A G9A U10G U11A C12A C13G | 1.24
40 | U8A G9A U10G U11A C12A | 1.17
41 | U8A G9A U10G U11A C12U | 1.06
42 | U8A G9A U10G U11A C12G | 1.24

Row | Variant | aptazyme ON/OFF ratio
43 | U8A G9A U10A U11G C12A | 1.01
44 | U8A G9A U10A U11G C12G | 1.15
45 | U8A G9A U10A U11G C12U | 1.15
46 | U8A C12G C13G | 1.18
47 | U8A C12G C13A | 1.48
48 | U8A C12G C13U | 1.24
49 | U8A G9A U10C U11C C12G C13G | 1.13
50 | U8A G9A U10C U11C C12G C13U | 1.07
51 | U8A G9A U10C U11C C12G C13A | 1.03
52 | U7G U11G C12G C13U | 1.04
53 | U7G U11G C12G C13G | 1.14
54 | U7G U11G C12G C13A | 1.09
55 | U8A G9A U10C U11A C13A | 1.11
56 | U8A G9A U10C U11A C13U | 1.15
57 | U8A G9A U10C U11A C13G | 1.07
58 | U7G U11G C13U | 1.1
59 | U7G U11G C13A | 1.06
60 | U7G U11G C13G | 1.08
61 | U8A G9A U10C U11C C12A | 1.08
62 | U8A G9A U10C U11C C12U | 1.07
63 | U8A G9A U10C U11C C12G | 1.05

Row | Variant | aptazyme ON/OFF ratio
64 | U8A G9A U10A | 1.65
65 | U8A G9A U10G | 1.46
66 | U8A G9A U10C | 2.54
67 | U7G U10G U11C C12A C13U | 1.17
68 | U7G U10G U11C C12A C13G | 1.12
69 | U7G U10G U11C C12A C13A | 1.11
70 | U7G U10G U11A C13U | 1.11
71 | U8A G9A C12A C13G | 1.1
72 | U8A G9A C12A C13U | 1.19
73 | U8A G9A C12A C13A | 1.3
74 | U8A G9A U10C U11C C12A C13U | 1.02
75 | U8A G9A U10C U11C C12A C13G | 1.1
76 | U8A G9A U10C U11C C12A C13A | 1.07
77 | U8A G9A U10A C12A | 1.43
78 | U8A G9A U10A C12U | 1.24
79 | U8A G9A U10A C12G | 1.17
80 | U7G U11C C12A | 1.21
81 | U7G U11C C12U | 1.27
82 | U7G U11C C12G | 1.26
83 | U8A G9A C12U C13A | 1.19
